The results in this text go back to patent publication US20150037348A1 (AbbVie / Abbott, published 2015).

The term Kd denotes the constant that tells how readily two partners part at equilibrium. Broadly, the IC50 is the midpoint of a concentration-inhibition curve.

For experiment [1], the target named is T1, recombinant human IL-12 (rhIL-12) (human, UniProt P29459 23-219; P29460 23-328).
T1 construct: disulfide-linked p35/p40 heterodimer (p70); also called IL-12 p70; rec. human IL12
T1 sequence (looked up) 1: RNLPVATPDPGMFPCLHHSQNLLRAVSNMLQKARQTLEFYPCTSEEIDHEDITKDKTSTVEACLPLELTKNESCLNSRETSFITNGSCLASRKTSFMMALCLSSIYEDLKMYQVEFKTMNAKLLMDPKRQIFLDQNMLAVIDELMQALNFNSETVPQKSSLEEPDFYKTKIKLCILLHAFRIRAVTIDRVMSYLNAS
T1 sequence (looked up) 2: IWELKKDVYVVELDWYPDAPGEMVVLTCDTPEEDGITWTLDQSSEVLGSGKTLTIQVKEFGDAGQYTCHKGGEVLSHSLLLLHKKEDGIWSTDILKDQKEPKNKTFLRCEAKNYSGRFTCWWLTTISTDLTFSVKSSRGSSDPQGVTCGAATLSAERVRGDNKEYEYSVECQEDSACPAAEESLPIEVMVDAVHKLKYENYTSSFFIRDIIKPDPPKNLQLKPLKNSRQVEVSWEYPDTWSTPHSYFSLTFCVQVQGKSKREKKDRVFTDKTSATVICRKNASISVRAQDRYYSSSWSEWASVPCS
Description: BIAcore SPR, rhIL-12. The protocol: Before injection of the protein and immediately afterward, HBS buffer alone flowed through each flow cell. […] Cytokines were diluted in HBS running buffer and 50 μl aliquots were injected through the immobilized protein matrices at a flow rate of 5 μl/min. […] The net difference in baseline signal and signal after completion of cytokine injection was taken to represent the binding value of the particular sample. Biosensor matrices were regenerated using 100 mM HCl before injection of the next sample. To determine the dissociation constant (off-rate), association constant (on-rate), BIAcore kinetic evaluation software (version 2.1) was used.
Kd was calculated for each separate experiment and then averaged.
(In general: SPR reads the build-up and loss of mass on a sensor chip optically.)

The target of experiment [2] is T1, recombinant human IL-12 (rhIL-12). Description: cell-based or functional assay.
For experiment [3] the target is unchanged. Description: cell-based or functional assay. The source holds these as a separate data set.
For experiment [4] the target is unchanged. Description: cell-based or functional assay. This is another data set of the same source.
For experiment [5] the target is unchanged. Description: biomolecular interaction assay (BIAcore). The procedure: (§1) Three independent experiments were performed, and the values shown are averages for the three experiments. From these measurements, the apparent dissociation (kd) and association (kₐ) rate constants were derived and used to calculate a Kd value for the interaction (see Table 10).
For experiment [6] the target is unchanged. Description: receptor binding assay, 125I-hIL-12 on PHA blasts. The protocol: (§2) PHA blast cells isolated as described above, were washed once and resuspended in binding buffer to a cell density of 2×10⁷ cells/ml. […] The cell pellet was examined for cell bound radioactivity using a gamma counter. […] Incubations were carried out in duplicate.
Experiment [7] has the same target. Description: receptor binding assay, 125I-hIL-12 on PHA blasts. This is another data set of the same source.
Experiment [8] has the same target. Description: receptor binding assay, 125I-hIL-12 on PHA blasts. The procedure:
as §2
Incubations were carried out in duplicate.
This is another data set of the same source.

For experiment [9] the target is unchanged. The experiment in a line: BIAcore, captured J695, soluble rhIL-12, mean of three experiments. The procedure:
as §1

A further experiment addresses dog IL-12 (dog). Description: cell-based or functional assay.
Experiment [10] concerns the target T2, chimeric IL-12 (murine p35 subunit with the human IL-12 p40 subunit) (mouse; human, UniProt P43431 23-215; P29460 23-328).
T2 sequence (looked up) 1: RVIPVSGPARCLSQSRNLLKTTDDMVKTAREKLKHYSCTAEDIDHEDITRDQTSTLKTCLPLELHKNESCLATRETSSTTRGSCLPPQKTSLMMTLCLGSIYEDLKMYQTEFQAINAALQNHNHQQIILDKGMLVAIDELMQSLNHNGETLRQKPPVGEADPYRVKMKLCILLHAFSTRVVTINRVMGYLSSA
T2 sequence (looked up) 2: T1 sequence (looked up) 2
Description: inhibition of IFN-γ production in mice given chimeric IL-12. The protocol:
The control hulgG1γ was given IP. at a dose of 0.05 mg/kg on days 0, 2, and 4. The mice were bled on day 5, and serum IFN-γ levels were determined by ELISA.

A further experiment deals with human IL-8 (human, UniProt P10145 28-99, limits assumed). Description: competition ELISA: soluble cytokine against J695 (100 ng/ml) binding to immobilized human IL-12. The protocol: (§3) The plates were washed 4 times and incubated for 1 h at room temperature with 100 μl mouse anti-human lambda-HRP (1:500 in PBS-T/BSA, Southern Biotech. Ass. Inc., Birmingham, Ala.). The plates were washed 4 times and developed with ABTS (Kirkegaard & Perry Lab, Gaithersburg, Md.) for 20-30 minutes in the dark. The OD₄₅₀ nm was read using a microplate reader (Molecular Devices, Menlo Park, Calif.).
On the technique in general: An ELISA detects its analyte on a solid surface through an enzyme-linked reagent.

The target in a further experiment is T3, human IL-11 (human, UniProt P20809 22-199).
T3 sequence (looked up): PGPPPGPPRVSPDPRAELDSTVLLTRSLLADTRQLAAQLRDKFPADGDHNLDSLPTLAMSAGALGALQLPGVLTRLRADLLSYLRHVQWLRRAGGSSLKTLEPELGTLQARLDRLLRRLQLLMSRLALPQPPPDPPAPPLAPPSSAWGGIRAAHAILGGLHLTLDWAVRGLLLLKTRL
Described as above. The procedure: as §3

Experiment [11] addresses T4, human IL-12 p40 subunit (free p40) (human, UniProt P29460 23-328).
T4 sequence (looked up): T1 sequence (looked up) 2
The experiment in a line: competition ELISA: soluble human IL-12 p40 (2 nM) against J695 binding to immobilized human IL-12. The procedure: as §3

Values joined by “and” are separate entries in the source; they are usually repeats but may differ in a detail not shown here. Equal entries are not always repeated. Where two headings read alike, the source gives them in different places.

B1: J695 (antibody, human IgG1, V domains shown)
VH: QVQLVESGGGVVQPGRSLRLSCAASGFTFSSYGMHWVRQAPGKGLEWVAFIRYDGSNKYYADSVKGRFTISRDNSKNTLYLQMNSLRAEDTAVYYCKTHGSHDNWGQGTMVTVSS
VL: QSVLTQPPSVSGAPGQRVTISCSGSRSNIGSNTVKWYQQLPGTAPKLLIYYNDQRPSGVPDRFSGSKSGTSASLAITGLQAEDEADYYCQSYDRYTHPALLFGTGTKVTVLG
notes: human IgG1 with lambda light chain
Take B1: the Kd was 0.119 nM and 0.149 nM in [1]; 0.0974 nM in experiment [5]; 0.0974 nM and 0.014 µg/mL in [9]. For the same molecule, in [2], the “IFN gamma IC50” value came to 0.005 nM. For the same molecule, the “PHA assay IC50” value in experiment [2] amounted to 0.01 nM. In addition, in experiment [3], the “PHA assay IC50 (M) p70:p40 1:0” value was 1e-11 M. Besides, the “PHA assay IC50 (M) p70:p40 1:50” value in experiment [3] is 3.5e-11 M. In addition, the “IFN-γ Assay IC50” value in experiment [4] was 0.0058 nM and 0.0043 nM. Besides, the “PHA blast Assay IC50” value in experiment [4] is 0.0055 nM and 0.0044 nM. For the same molecule, the IC50 is 0.05 nM in experiment [6]; 0.011 nM in experiment [7]; 0.034 nM and 0.03 nM in experiment [8].

B2: J695 (antibody, V domains shown)
VH: B1 VH
VL: B1 VL
notes: Human IgG1 with lambda light chain (detected with anti-human lambda); Made in CHO or COS cells
For the molecule B2, in the experiment with dog IL-12, the “activity on dog IL-12 in the neutralization bioassay, against human IL-12” value is roughly 35 fold. The binding result in experiment [10] was “binds”; with human IL-8, “no binding (tested: 2 nM)”; with human IL-11 it was “no binding (tested: 2 nM)”; in experiment [11], “binds”.
